Test results as given in IntAct's records for PubMed 16619024.

B1: Translocon at the outer membrane of chloroplasts 64 (Pisum sativum (Garden pea)), Q9MUK5 (parent)
chain: MKSMASPSSQIWVILGLGLAGIYVLTRKLTQAVKEDFGAFLLKLKLLPPPPPAPPKAPHPLSSLNFAISDIFDIEGHVSTFGHPEWARTHEPASSTASAVSALVESGATCIGTTVVDELAYGISGENKHFGTPTNPAVPNRVPGGSSSGAAVAVAANFVDFSLGVDTSGGVRVPAGFCGILGFRPSHGAVSHVGIIPVSTSLDTVGWFAKDPDVLRRVGHILLQAPFVMQRNPRQIIIADDCFQHLNVPLDRTSQVVIKATEKLFGKQVLKHINFEDYISSKVSSLKACSIQKSNGVLKSSSLKLLANVMQSLQRHEFEHTHSEWMSIVKPDLHPAVSAQLHEKFEVSELEIENSKSVRSELRVAVNSLLKDEGVLVIPTVADPPPKLGGKEFLSHDYQSRALSLLSIASISGCCQVTVPLGFFDKNPVSVSLIARHGGDRFLLDTLKTMYTVLQEQADIAAPSKSSKSVVSKEQSAEISKEKGNQAYKDKQWQKAIGFYTEAIKLCGNNATYYSNRAQAYLELGSYLQAEEDCTTAISFDKKNVKAYFRRGTAREMLGYYKEAIDDFKYALVLEPTNKRAASSAERLRKLFQ

Variants of: B1
Conditions: with hs704_arath HSP70-4, Q9LHA8

effect of a mutation on the interaction | Variant
decreasing interaction | R550A
